# From patent US6653444 (Dana-Farber, dated 2003)
# Biological target: CD28 (human, UniProt P10747 19-220)
# Experiment: cell-based or functional assay
# Chain of CD28 (P10747 19-220): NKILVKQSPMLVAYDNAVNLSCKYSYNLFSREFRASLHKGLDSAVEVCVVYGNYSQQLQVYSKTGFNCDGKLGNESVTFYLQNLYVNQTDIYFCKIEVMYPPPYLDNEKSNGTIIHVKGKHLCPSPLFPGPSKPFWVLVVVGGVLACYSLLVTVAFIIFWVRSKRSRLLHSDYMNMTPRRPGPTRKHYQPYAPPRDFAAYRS
fold enhancement of proliferation of PMA-treated human CD28+ T cells by fixed COS-mB7 cells,"IL-2 secretion with CHO-B7 relative to anti-CD28 mAb, PMA-stimulated CD28+ T cells",fold enhancement of proliferation of PMA-treated human CD28+ T cells by fixed COS-hB7 cells,fold increase in proliferation of PMA-treated human CD28+ T cells by fixed CHO-hB7 cells,proliferation by CHO-B7 relative to anti-CD28 mAb,Binder
29 fold,,,,,murine B7 (ligand) VDEQLSKSVKDKVLLPCRYNSPHEDESEDRIYWQKHDKVVLSVIAGKLKVWPEYKNRTLYDNTTYSLIILGLVLSDRGTYSCVVQKKERGTYGVKHLALVKLSIKADFSTPNITESGNPSADTKRITCFASGGFPKPRFSWLENGRELPGINTTISQDPESELYTISSQLDFNTTRNHTIKCLIKYGDAHVSEDFTWEKPPEDPPDSKNTLVLFGAGFGAVITVVVIVVIIKCFCKHRSCFRRNEASRETNNSLTFGPEEALAEQTVFL
,~45%,30 fold,51 fold,~28 % less,human B7 B cell activation antigen (ligand) VIHVTKEVKEVATLSCGHNVSVEELAQTRIYWQKEKKMVLTMMSGDMNIWPEYKNRTIFDITNNLSIVILALRPSDEGTYECVVLKYEKDAFKREHLAEVTLSVKADFPTPSISDFEIPTSNIRRIICSTSGGFPEPHLSWLENGEELNAINTTVSQDPETELYAVSSKLDFNMTTNHSFMCLIKYGHLRVNQTFNWNTTKQEHFPDNLLPSWAITLISVNGIFVICCLTYCFAPRCRERRRNERLRRESVRPV
